Source: patent publication US10858422B2, “Methods for treating systemic lupus erythematosus with an anti-apolipoprotein B antibody” (Abcentra, LLC, priority 2016, dated 2020)
Where “and” joins values, the source holds several entries; their conditions need not be identical. Identical values can stand only once. Like-named read-outs stand apart in the source and are kept apart here.

Experiments:
B6.lpr.ApoE−/− mice = test: Atherosclerosis: en face Oil Red O of aortic arch, subvalvular plaque area, Oil Red O and CD68; format: in vivo, mouse; conditions: for reduction of subvalvular plaque area / development: three injections of the antibody
[1] = in vivo, iv
Text: Random allocation was stratified by T2DM status and pre-diabetes status, presence of elevated screening tissue-to-background ratio TBR>2), and study site.

SLE ApoE−/− mice = test: Passive immunization: plaque area and composition in aortic root, flat preps of aorta; format: in vivo, mouse
Protocol: SLE ApoE^−/− mice were treated with three weekly injections of either orticumab or an irrelevant antibody as control. Six-week old mice were fed with HFD, and were injected at weeks 18, 19 and 20 with orticumab (one dose of 1 mg per week, IP injections), and sacrificed for analysis in week 22. Plaque area and composition were determined in the aortic root.

[2] = tested on: PBMC isolated from SLE patients; test: Uptake of DiI-oxLDL and cytokine release in SLE PBMC with MDA.P45-IgG; format: cell-based, human; conditions: 10 μg/ml antibody with 10 μg/ml labelled oxLDL, 24 hours
Protocol: Flow cytometry analysis of PBMCs stimulated with DIloxLDL and MDA.P45-IgG antibody: PBMCs were slowly thawed in 37° C. PBS with 2% autologous serum, counted and seeded into appropriate medium and conditions. Medium for each stimuli condition was prepared from complete RPMI (cRPMI, 10 U/ml Penicillin/streptomycin, 1% L-glutamine, 1% sodium pyruvate, 1% Hepes and 0.1% mercaptoethanol) with 2% autologous serum (Sigma Aldrich) including the respective stimuli conditions and pre-incubated in 37° C. for 1 h before stimulating the cells with it. Condition 1; unstimulated, condition 2; 10 μg/ml Dil-OxLDL (Thermo Scientific), condition 3; 10 μg/ml Dil-OxLDL with MDA.P45-IgG. (Dil-OxLDL refers to oxidized LDL complexed with Dil dye).
At time of experiment, cells were slowly thawed in 37° C. PBS containing 2% autologous serum. Cells were counted and all cells obtained were divided into three wells for respective condition mentioned above for 24 h at 37° C. in 5% CO2. After 24 h stimulation, medium was harvested and kept in −80° C. until cytokine analysis. Cells were washed twice in FACS buffer (PBS 1% bovine serum albumin […] EDTA), then stained with Zombie Aqua viability dye for 20 minutes in room temperature (RT). This was followed by another wash then incubation with anti-HLA-DR APC-Cy7 anti-CD3-PECy7 and anti-CD14-AF700 for 30 minutes in RT prior acquisition in Gallios flow cytometer (Beckman Coulter, Brea, Calif., USA). Cell populations were manually gated in FlowJo LTT (Tree Star, San Diego, Calif., USA).
Multiplex analysis of PBMC cell culture medium: Cell culture medium from human SLE and control PBMCs were thawed on ice before analyzed using Multiplex Inflammation assay (Merck, Millipore, Burlington, Mass., USA) according to following kit instructions.
Having observed the protective effect of MDA-p45 IgG on atherosclerosis development in B6.lpr.ApoE−/− mice, we next investigated how this antibody affected the interaction of SLE PBMC with oxLDL. We incubated the cells with 10 μg/ml of fluorescently labelled oxLDL for 24 hours with and without addition of 10 μg/ml MDA-p45 IgG.

[3] = in vivo
[4] = Second Phase I (Ph1): single-dose bioavailability after subcutaneous and intravenous administration; conditions: for tmax: Median (min-max)
[5] = male mice, 1 mg i.p. weekly for three weeks, vs control IgG
[6] = Intravenous (Cohort A, Period 1), single dose 360 mg, Mean (SD)
[7] = Subcutaneous (Cohort A, Period 2), single dose 360 mg, Mean (SD)
[8] = Subcutaneous (Cohort B), single dose 360 mg, Mean (SD)

orticumab: recombinant human IgG1 against MDA-modified peptide 45 of ApoB100; heavy chain SEQ ID NO: 316, light chain SEQ ID NO: 317
lipid accumulation in subvalvular plaques (B6.lpr.ApoE−/− mice; [5]): trend towards decreased | reduction of CD68-macrophage subvalvular plaque staining (B6.lpr.ApoE−/− mice; [5]): 30.5% | reduction of atherosclerosis in the aortic arch (B6.lpr.ApoE−/− mice; [5]): 42.8% | reduction of subvalvular plaque area / development (B6.lpr.ApoE−/− mice): 50% | reduction of subvalvular plaque area / development (B6.lpr.ApoE−/− mice; listed as MDA-P45 specific antibody): 50.3% | Cmax D 1 [1]: 297 μ/mL | plaque area in aortic root (SLE ApoE−/− mice; 1 mg IP weekly at weeks 18, 19, 20, vs control antibody): significantly smaller plaques | apoptosis in plaque areas (number of TUNEL cells) (SLE ApoE−/− mice; 1 mg IP weekly x3): increased apoptosis | lipid staining, flat preps of the aorta (SLE ApoE−/− mice; 1 mg IP weekly x3): reduction, although not significant | CD68+ area (SLE ApoE−/− mice; 1 mg IP weekly x3, vs control antibody): reduced | cellular uptake of oxLDL [2]: increased cellular uptake | expression of CD14 and uptake of oxLDL in CD14+ APC [2]: increased | release of anti-inflammatory cytokine IL-1RA [2]: modest increase | C ≥ 1 μg/mL [3]: Day 57 | C ≥ 4 μg/mL [3]: Day 15 | C ≥ 12 μg/mL [3]: Day 8 | t1/2 ([3]; iv, 360 mg): 20.3 (2.91) d | C ≥ 1 μg/mL ([3]; sc): Day 43 | C ≥ 4 μg/mL ([3]; sc): Day 15 | AUC(0-inf) [4, 6]: 412 (87.3) μg * d/mL | AUC(0-last) [4, 6]: 380 (76.4) μg * d/mL | CL [4, 6]: 0.906 (0.168) L/d | Cmax [4, 6]: 84.3 (16.9) μg/mL | MRT [4, 6]: 16.9 (3.02) d | Vss [4, 6]: 15.2 (3.25) L | Vz [4, 6]: 26.3 (5.34) L | tmax ([4]; Intravenous (Cohort A, Period 1), single dose 360 mg): 0.04 (0.04-0.04) d | Cmax ([4]; Ph1 trial, single dosing, 360 mg IV): 84.3 µg/mL | Cmax ([4]; Ph1 trial, single dosing, 360 mg SC): 9.15 µg/mL | Cmax ([4]; Ph1 trial, single dosing, 360 mg SC 70-90 days after IV dosing): 15.1 µg/mL | AUC(0-last) [4, 7]: 215 (60.0) μg * d/mL | Cmax [4, 7]: 15.1 (4.50) μg/mL | AUC(0-inf) ([4]; Subcutaneous (Cohort A, Period 2), single dose 360 mg, Mean (SD), corrected by subtracting AUCresidual from Period 1): 236 (69.7) μg * d/mL | tmax ([4]; Subcutaneous (Cohort A, Period 2), single dose 360 mg): 3.99 (1.96-6.91) d | AUC(0-inf) [4, 8]: 194 (45.6) μg * d/mL | AUC(0-last) [4, 8]: 178 (39.6) μg * d/mL | Cmax [4, 8]: 9.15 (3.86) μg/mL | tmax ([4]; Subcutaneous (Cohort B), single dose 360 mg): 3.91 (1.00-4.02) d | t½ ([4]; both routes of administration): about 20 days | increase of SC bioavailability by a prior IV dose ([4]; in vivo): approximately 9% | median tmax ([4]; single SC dose): 96 h | Cmax of SC dose versus threshold ([4]; single SC dose 360 mg): falls within range of 4-12 μg/mL | maximum mean serum concentration ([4]; single SC dose 360 mg, Cohort A, Period 2): 15.1 µg/mL | maximum mean serum concentration ([4]; single SC dose 360 mg, Cohort B): 9.15 µg/mL | absolute bioavailability based on AUC(0-inf) ([4]; single SC dose of 360 mg): 47% | bioavailability ([4]; single SC dose of 360 mg after at least 70 days washout from an initial IV dose): 56% | ½-life ([4]; single dose 360 mg IV): 33.5 days | ½-life ([4]; single dose 360 mg SC): 24.3 days and 24 days | Cmax, max exposure IV vs SC ([4]; single dose at 360 mg (4.34 mg/kg)): 9.2 times
